Tests used:
[1] = molecular target: T1, recombinant murine galectin-1 (R&D Systems) (UniProt P16045 2-135); test: SPR (BIAcore)
T1 chain: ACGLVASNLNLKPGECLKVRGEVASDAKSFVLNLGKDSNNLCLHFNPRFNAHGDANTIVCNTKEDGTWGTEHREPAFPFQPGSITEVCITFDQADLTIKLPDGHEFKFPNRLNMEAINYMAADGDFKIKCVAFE

[2] = molecular target: recombinant human galectin-1 (R&D Systems) (UniProt P09382 2-135); test: SPR (BIAcore)
recombinant human galectin-1 (R&D Systems), sequence (P09382 2-135): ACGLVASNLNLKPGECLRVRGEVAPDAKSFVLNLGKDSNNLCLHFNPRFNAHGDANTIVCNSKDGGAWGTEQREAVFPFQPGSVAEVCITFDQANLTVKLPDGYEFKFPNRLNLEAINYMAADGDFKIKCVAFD

B1: anti-Gal1 monoclonal antibody 8A12.H9.H10 (antibody, V domains shown)
VH: QAYLQQSGAELVRPGASVRMSCKASGYTFTRYNMHWVKQTPRQGLEWIGRIYPGNGDTSYNQKFKGKATLTVDKSSSTAYMQLSSLTSEDSAVYFCTVWDYWGQGTTLTVSS
VL: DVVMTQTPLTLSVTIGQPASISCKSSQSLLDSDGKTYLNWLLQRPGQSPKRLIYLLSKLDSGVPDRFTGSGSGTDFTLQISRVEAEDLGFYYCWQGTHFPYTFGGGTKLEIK
Kd [1]: 26.6 nM
Kd [2]: 71 nM
